In the Human Domainome abundance scans (Beltran et al. 2025):
± gives the uncertainty stated by the source.

B1: Cyclin-F, residues 28 to 80; numbered along this chain, P41002 (parent)
chain: RNLTILSLPEDVLFHILKWLSVEDILAVRAVHSQLKDLVDNHASVWACASFQE

Variants of: B1
Assay: abundance fitness (aPCA) (normalised: wild type 0, dead -1); higher = more abundant; growth selection in yeast, the domain comes from the species named
Conditions: Homo sapiens

Abundance fitness of substitutions, site by site:
F51: T -0.014 ± 0.11; Y -0.215 ± 0.24; S -0.194 ± 0.11; A -0.138 ± 0.091; G -0.158 ± 0.079; E -0.38 ± 0.14
K18: V -0.452 ± 0.11; H -0.122 ± 0.17; T -0.254 ± 0.13; M -0.251 ± 0.16; E -0.148 ± 0.13; F -0.573 ± 0.16; C -0.597 ± 0.2; Q -0.081 ± 0.16; Y -0.505 ± 0.22
Q34: N -0.417 ± 0.13; R 0.109 ± 0.062; M -0.156 ± 0.075; C -0.248 ± 0.086
H15: Y -0.388 ± 0.075; K 0.216 ± 0.15; D -0.408 ± 0.18; F -0.499 ± 0.15; E -0.222 ± 0.15; V -0.55 ± 0.13; Q -0.356 ± 0.17
V28: N -1.09 ± 0.37; F -0.396 ± 0.14; W -0.705 ± 0.13; P -0.88 ± 0.15; G -0.759 ± 0.1; K -0.71 ± 0.2
S21: F -0.731 ± 0.15; W -0.824 ± 0.16; I -0.405 ± 0.23; Q -0.473 ± 0.17; C -0.311 ± 0.18; V -0.621 ± 0.12; H -0.334 ± 0.19; L -0.855 ± 0.12
A27: T 0.087 ± 0.15; G -0.787 ± 0.098; W -0.622 ± 0.14; K -0.175 ± 0.14
L13: T -0.001 ± 0.17; S -0.67 ± 0.2; Q -0.093 ± 0.19; C -0.933 ± 0.35; M -0.138 ± 0.14
R1: N 0.134 ± 0.27; V -0.465 ± 0.2; C -0.246 ± 0.16; L -0.305 ± 0.44; A -1.04 ± 0.42
I25: A -0.602 ± 0.1; W -0.41 ± 0.1; G -1.08 ± 0.14; S -0.783 ± 0.13
S7: K -0.109 ± 0.13; L -0.647 ± 0.1; N -0.118 ± 0.13; G -0.31 ± 0.076; Q -0.232 ± 0.13
H42: D -0.746 ± 0.29; T -0.487 ± 0.13; C -0.237 ± 0.15; Y -0.365 ± 0.11; V -0.716 ± 0.095; G -0.467 ± 0.094; I -0.075 ± 0.25
L17: T -0.63 ± 0.18; E -1.06 ± 0.23; I 0.148 ± 0.26; V -0.169 ± 0.093; G -0.547 ± 0.099; N -0.926 ± 0.4; H -0.678 ± 0.46
V22: S -0.452 ± 0.083; K -0.132 ± 0.14; T -0.168 ± 0.11; E -0.285 ± 0.11; F -0.141 ± 0.1; G -0.553 ± 0.071; H -0.122 ± 0.14
A47: I -0.178 ± 0.23; E -0.365 ± 0.14; D -0.062 ± 0.15; K -0.181 ± 0.16; F 0.386 ± 0.18
E23: Y -0.62 ± 0.2; M -0.802 ± 0.24; S -0.186 ± 0.11; P -0.236 ± 0.18; L -0.856 ± 0.15; H -0.358 ± 0.16; W -0.577 ± 0.23; T -0.477 ± 0.18
D37: P -1.02 ± 0.2; Q 0.075 ± 0.17; V -0.049 ± 0.1
D24: E -0.388 ± 0.14; C -0.716 ± 0.13; N -1.11 ± 0.21; H -0.708 ± 0.25; P -0.661 ± 0.17; A -0.631 ± 0.13; Y -0.544 ± 0.15; I -0.684 ± 0.24
V31: F -0.747 ± 0.17; K -0.809 ± 0.24; I -0.594 ± 0.11; G -0.672 ± 0.11; Y -0.964 ± 0.23; T 0.124 ± 0.11; C -0.056 ± 0.1; S 0.191 ± 0.09; Q -0.532 ± 0.15; D -0.729 ± 0.2
L26: Y -0.386 ± 0.16; T -0.396 ± 0.14; A -0.283 ± 0.1; R -0.169 ± 0.08; S -0.5 ± 0.12; Q -0.147 ± 0.11
A30: P -0.844 ± 0.14; C 0.089 ± 0.13; F -0.62 ± 0.16; R 0.053 ± 0.074; V -0.125 ± 0.098
A49: K 0.17 ± 0.13; L -0.395 ± 0.1; S 0.092 ± 0.078; Y -0.341 ± 0.25; E -0.125 ± 0.14; D 0.248 ± 0.12
S50: V -0.621 ± 0.14; M -0.483 ± 0.17; N -0.394 ± 0.27; L -0.485 ± 0.099; Y -0.369 ± 0.2
L20: H -0.812 ± 0.48; S -0.705 ± 0.15; A -0.667 ± 0.16; G -0.605 ± 0.15; Q -0.893 ± 0.26; R -0.853 ± 0.14; N -0.759 ± 0.23
A43: I -0.577 ± 0.36; T -0.416 ± 0.39; R -0.273 ± 0.22; N -0.303 ± 0.3
V12: R -0.909 ± 0.13; Q -0.747 ± 0.15; N -1.02 ± 0.44; S -0.85 ± 0.15; W -0.851 ± 0.16; C -0.343 ± 0.28
I5: S -1.04 ± 0.15; W -0.615 ± 0.15; V -0.243 ± 0.087; P -0.559 ± 0.15; C -0.692 ± 0.16; G -0.78 ± 0.097; T -0.697 ± 0.17
E53: H -0.878 ± 0.36; A -0.151 ± 0.17; G -0.069 ± 0.13; S -0.467 ± 0.22
I16: M -0.32 ± 0.14; C -0.341 ± 0.18; E -0.773 ± 0.23; N -1.04 ± 0.34; Y -0.641 ± 0.24; H -1.02 ± 0.31; W -0.823 ± 0.17
L8: S -0.635 ± 0.33; C -0.993 ± 0.38; M -0.407 ± 0.4; G -0.939 ± 0.23; N -0.755 ± 0.29; R -0.833 ± 0.24; K -0.744 ± 0.44
Q52: P -0.377 ± 0.16; N -0.286 ± 0.19; F -0.241 ± 0.22
R29: F -0.574 ± 0.17; E -0.863 ± 0.18; G -0.795 ± 0.12; P -0.716 ± 0.16; H -0.65 ± 0.14; C -0.635 ± 0.19; M -0.541 ± 0.14; I -0.793 ± 0.18; W -0.814 ± 0.15
L3: F -0.078 ± 0.17; K -0.354 ± 0.16; N -0.337 ± 0.2; H -0.283 ± 0.15; P -0.322 ± 0.13
D11: H -0.384 ± 0.15; Q -0.049 ± 0.13; A 0.028 ± 0.1; S 0.093 ± 0.087; I -0.43 ± 0.25; R -0.099 ± 0.08; N 0.046 ± 0.091; E -0.153 ± 0.14
L35: I -0.158 ± 0.22; H -0.831 ± 0.34; E -0.745 ± 0.14; D -0.528 ± 0.29; Y -0.687 ± 0.41; A -0.772 ± 0.12; S -0.786 ± 0.14
F14: V 0.198 ± 0.075; W 0.347 ± 0.083; P -0.954 ± 0.2; S -0.158 ± 0.08; H -0.324 ± 0.14; A 0.132 ± 0.085; K 0.226 ± 0.093
S33: H -0.443 ± 0.11; W -0.48 ± 0.078; V -0.544 ± 0.066; Q -0.672 ± 0.11; M -0.72 ± 0.089; R -0.158 ± 0.061
V45: I -0.026 ± 0.13; M -0.082 ± 0.21; C -0.027 ± 0.11; Y 0.154 ± 0.17; P -0.061 ± 0.11; E 0.362 ± 0.11
W46: S -0.314 ± 0.088; G -0.065 ± 0.084; H -0.38 ± 0.17; I -0.294 ± 0.13; T -0.3 ± 0.1; Q -0.136 ± 0.15; D -0.043 ± 0.15; M -0.27 ± 0.13
N41: P -0.59 ± 0.15; A -0.071 ± 0.21; L -0.306 ± 0.1; Q 0.128 ± 0.14; K 0.231 ± 0.16
K36: W -0.626 ± 0.22; M -0.932 ± 0.2; H -0.445 ± 0.15; I -0.986 ± 0.23; R 0.054 ± 0.084; V -0.785 ± 0.12; L -0.625 ± 0.12; P -0.573 ± 0.16; D -0.886 ± 0.28
H32: P -0.737 ± 0.15; V -0.532 ± 0.1; L -0.757 ± 0.13; Y -0.895 ± 0.13; M -1.09 ± 0.3; G -0.591 ± 0.11
D40: Q -0.49 ± 0.2; G -0.77 ± 0.1; R -0.749 ± 0.11; Y -0.862 ± 0.22; F -0.828 ± 0.22; C -0.912 ± 0.22; T -0.444 ± 0.15; V -0.606 ± 0.095
S44: M -0.223 ± 0.12; W -0.485 ± 0.14; F -0.278 ± 0.12; T -0.307 ± 0.12; D 0.212 ± 0.13; N 0.11 ± 0.24; Q -0.306 ± 0.21; R -0.281 ± 0.079
L38: E -0.872 ± 0.24; R -0.633 ± 0.11; V 0.273 ± 0.088; D -0.758 ± 0.18; K -0.34 ± 0.17; I 0.244 ± 0.17; C 0.17 ± 0.099; Q -0.682 ± 0.2; P -0.935 ± 0.27; W -0.214 ± 0.12
L6: N -0.691 ± 0.17; P -0.674 ± 0.16; Q -0.427 ± 0.15; T -0.486 ± 0.12; M -0.486 ± 0.15
N2: H -0.065 ± 0.14; E -0.348 ± 0.19; R -0.078 ± 0.085; Y -0.366 ± 0.14; W -0.871 ± 0.13
W19: S -0.057 ± 0.091; V -0.226 ± 0.084; E 0.227 ± 0.16; T -0.269 ± 0.14; H 0.257 ± 0.18
P9: S -0.672 ± 0.11; C -0.676 ± 0.15; Y -0.932 ± 0.18; N -0.882 ± 0.33
T4: M -0.695 ± 0.17; S 0.087 ± 0.093; D -0.076 ± 0.11; I -0.866 ± 0.23; H -0.059 ± 0.14; Y -0.85 ± 0.29; C -0.55 ± 0.17; V -0.997 ± 0.15
V39: T -0.787 ± 0.19; D -0.655 ± 0.21; M -0.781 ± 0.27; E -0.819 ± 0.17
E10: N -0.589 ± 0.19; R -0.054 ± 0.072; A -0.208 ± 0.12; L -0.646 ± 0.098; H -0.166 ± 0.1; M -0.558 ± 0.15; D -0.225 ± 0.12
C48: S 0.14 ± 0.095; R -0.321 ± 0.1; I -0.306 ± 0.18; W -0.312 ± 0.11; L 0.075 ± 0.085; D -0.14 ± 0.2; T -0.066 ± 0.12; V -0.406 ± 0.093; F -0.364 ± 0.13
